Results on two molecules are retold here after PMC2878558 (The Journal of Biological Chemistry, 2010).

B2: VAMP7(1–118) (domain or fragment, human, UniProt P51809 1-118, looked up)
chain: MAILFAVVARGTTILAKHAWCGGNFLEVTEQILAKIPSENNKLTYSHGNYLFHYICQDRIVYLCITDDDFERSRAFNFLNEIKKRFQTTYGSRAQTALPYAMNSEFSSVLAAQLKHHS

The target in the series “VAMP7(1–118)” is B2. The series can be described thus: NMR titration.
The series “SEC-MALS” concerns the molecule itself. The series can be described thus: SEC-MALS. (In gel filtration, larger molecules generally elute earlier.)

In general, stoichiometry N refers to the number of molecules, sites or subunits per partner or assembly.

B1: VAMP7(119–180) (domain or fragment, human, UniProt P51809 119-180, looked up)
chain: ENKGLDKVMETQAQVDELKGIMVRNIDLVAQRGERLELLIDKTENLVDSSVTFKTTSRNLAR
In the case of B1, the binding result with VAMP7(1–118) is “binds”.
With B2, the “stoichiometry N” value in the series “SEC-MALS” was found to be 2.
